According to patent publication US20110318360A1:

Columns and labels:
[1] = biological target: HIV-1 B.MN Env on Aldrithiol-2 inactivated virions (HIV-1)
[2] = biological target: HIV-1 B.ADA Env on Aldrithiol-2 inactivated virions (HIV-1)
[3] = biological target: HIV-1 B.AD8 Env on Aldrithiol-2 inactivated virions (HIV-1)
[4] = biological target: HIV-1 C.DU123 Env (HIV-1)
[5] = biological target: Env of HIV-BaL.LucR.T2A.ecto/hPBMC (HIV-1)

## 2F5 (antibody)
[1]
  IC90, inhibition of fusion (syncytia) induced by Aldrithiol-2 inactivated HIV-1 in SUP-T1 cells: < 1.2 µg/mL
[2]
  IC90, inhibition of fusion (syncytia) induced by Aldrithiol-2 inactivated HIV-1 in SUP-T1 cells: < 1.2 µg/mL
[3]
  IC90, inhibition of fusion (syncytia) induced by Aldrithiol-2 inactivated HIV-1 in SUP-T1 cells: 3.4 µg/mL

## 4E10 (antibody)
[4]
  IC50, neutralization of HIV-1 Env pseudovirus in TZM-bl cells: < 2 µg/mL
HIV-1 B.6535 Env (HIV-1)
  IC50, neutralization of HIV-1 Env pseudovirus in TZM-bl cells: < 2 µg/mL
HIV-1 B.PVO Env (HIV-1)
  IC50, neutralization of HIV-1 Env pseudovirus in TZM-bl cells: 2.2 µg/mL
[1]
  IC90, inhibition of fusion (syncytia) induced by Aldrithiol-2 inactivated HIV-1 in SUP-T1 cells: < 1.2 µg/mL
[2]
  IC90, inhibition of fusion (syncytia) induced by Aldrithiol-2 inactivated HIV-1 in SUP-T1 cells: < 1.2 µg/mL
[3]
  IC90, inhibition of fusion (syncytia) induced by Aldrithiol-2 inactivated HIV-1 in SUP-T1 cells: 10 µg/mL
[5]
  mean IC80, inhibition of HIV-1 infection of PBMC from 75 donors: 20.4 µg/mL

## Bavituximab (antibody)
[4]
  IC50, neutralization of HIV-1 Env pseudovirus in TZM-bl cells: > 50 µg/mL
HIV-1 B.6535 Env (HIV-1)
  IC50, neutralization of HIV-1 Env pseudovirus in TZM-bl cells: > 50 µg/mL
HIV-1 B.PVO Env (HIV-1)
  IC50, neutralization of HIV-1 Env pseudovirus in TZM-bl cells: > 50 µg/mL

## IgG1b12 (antibody)
[5]
  mean IC80, inhibition of HIV-1 infection of PBMC from 75 donors: 9.2 µg/mL

B1: mAb 11.31 (PGN 632) (antibody, V domains shown)
VH: QVQLQESGPGLVKPSGTLSLTCAVSGGSISSSNWWSWVRQPPGKGLEWIGEIYHSGSTNYNPSLKSRVTISVDKSKNQFSLKLSSVTAADTAVYYCARSRFRSWLVKRRYVYFDYWGQGTLVTVSS
VL: SSELSQDPAVSVALGQTVRITCQGDSLRSYYASWYQQKPGQAPVLVIYGKNNRPSGIPDRFSGSSSGNTASLTITGAQAEDEADYYCNSRDSSGNVVFGGGTKVTVL
[4]
  IC50, neutralization of HIV-1 Env pseudovirus in TZM-bl cells: > 50 µg/mL
HIV-1 B.6535 Env (HIV-1)
  IC50, neutralization of HIV-1 Env pseudovirus in TZM-bl cells: > 50 µg/mL
HIV-1 B.PVO Env (HIV-1)
  IC50, neutralization of HIV-1 Env pseudovirus in TZM-bl cells: > 50 µg/mL
